Changes are numbered by the printed parent chain.
How the values were obtained:
[1] = biological target: CD19-ECD Fc fusion protein (human) (UniProt P15391); assay: ELISA, plates coated with CD19-ECD Fc, dose series of purified kappa fusion antibody fragment, OD450, GraphPad Prism
[2] = biological target: CD19 on the CD19-positive RaJi cell line (UniProt P15391); assay: flow cytometry on the CD19-positive RaJi cell line, dose series, anti-human IgG-FITC, GraphPad Prism

B1: H10 affinity-matured antibody fragment, kappa light chain fusion protein (scFv, V domains shown)
VH: EVQLLESGGGLVQPGGSLRLSCAASGFTFSDYYMSWVRQAPGKGLEWVSGIYYDGTNVYYADSVKGRFTISRDNSKNTLYLQMNSLRAEDTAVYYCAKGPLFCNDRTCSYYYAMDVWGQGTLVTVSS
VL: QSVLTQPPSASGTPGQRVTISCLGGYSNIGSNAVYWYQQLPGTAPKLLIYDDNHRPSGVPDRFSGSKSGTSASLAISGLRSEDEADYYCGTWDYSLSGYVLGGGTKLTVL
An EC50 [1] of 3.31 nM was found for B1 in this work.

B2: 2F1 affinity-matured antibody fragment, kappa light chain fusion protein (scFv, V domains shown)
VH: B1 VH with T56S, N57S, V58Q, Y59G, Y60W, A61S, D62S
VL: B1 VL with L23Y, G25Q, Y26P
An EC50 [2] of 10.5 nM and an EC50 [1] of 1.6 nM were found for B2 in this work.

B3: T3C1 affinity-matured antibody fragment, kappa light chain fusion protein (scFv, V domains shown)
VH: B1 VH with T56S, N57A, V58S
VL: B1 VL with L23S, Y26P
An EC50 [1] of 2.4 nM was found for B3 in this work.

B4: D7 affinity-matured antibody fragment, kappa light chain fusion protein (scFv, V domains shown)
VH: B1 VH with N57A, V58F
VL: B1 VL with L23E, G25Q, Y26P
An EC50 [1] of 3.2 nM was found for B4 in this work.

B5: T3H9 affinity-matured antibody fragment, kappa light chain fusion protein (scFv, V domains shown)
VH: B1 VH with G55A, T56S, N57A, V58E
VL: B1 VL with L23S, G25M, Y26L
An EC50 [1] of 2.32 nM was found for B5 in this work.

B6: E12 affinity-matured antibody fragment, kappa light chain fusion protein (scFv, V domains shown)
VH: B1 VH with G55S, T56F, N57V, V58P
VL: B1 VL with L23A, G25S, Y26A
An EC50 [1] of 2.56 nM was found for B6 in this work.

B7: D10 affinity-matured antibody fragment, kappa light chain fusion protein (scFv, V domains shown)
VH: B1 VH with T56S, N57A
VL: B1 VL with L23W, G25D
An EC50 [1] of 2.48 nM was found for B7 in this work.

B8: C2 affinity-matured antibody fragment, kappa light chain fusion protein (scFv, V domains shown)
VH: B1 VH with V58Q
VL: B1 VL with L23T, Y26L
An EC50 [2] of 61.2 nM and an EC50 [1] of 5.81 nM were found for B8 in this work.

B9: E3 affinity-matured antibody fragment, kappa light chain fusion protein (scFv, V domains shown)
VH: B1 VH with N57A, V58M
VL: B1 VL with L23S
An EC50 [2] of 26.1 nM and an EC50 [1] of 1.87 nM were found for B9 in this work.

From patent publication US20210061907A1
